Reference: the supplement of paper PMC7125110
± gives the standard error. This sample holds only a part of the variants without activity.

B1: glmS ribozyme (parent)
chain: AUAAAAGCGCCAGAACUACAGAAAUGUAGUUGACGAGGAGGAGGUUUAUCGAAUUUUCGGCGGAUGCCUCCAAA

Key:
Conditions in all cases: with glucosamine-6-phosphate
glucosamine-6-phosphate [1] = variants of: B1; test: self-cleavage kobs at 640 uM GlcN6P; higher = faster cleavage; RNA array
Outline: (§1)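 Barcoded ribozyme variants, transcribed in situ by E. coli RNA polymerase on sequenced MiSeq chips, were followed via a hybridised Cy3 probe at 37 °C. Glucosamine-6-phosphate ranged from 40 μM to 10 mM in HEPES/KCl/Mg(OAc)2 buffer. kobs came from decay fits to per-tile medians, and kcat and KM from weighted Michaelis–Menten fits.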

glucosamine-6-phosphate [2] = variants of: B1; test: self-cleavage kobs at 2500 uM GlcN6P; higher = faster cleavage; RNA array
Outline: as §1

glucosamine-6-phosphate [3] = variants of: B1; test: self-cleavage kobs at 10000 uM GlcN6P; higher = faster cleavage; RNA array
Outline: as §1

A12C A14U U30A U69G
self-cleavage kobs at 640 uM GlcN6P (glucosamine-6-phosphate [1]): 9e-05 ± 3.5e-05 s⁻¹

C11G A39C C67G
self-cleavage kobs at 640 uM GlcN6P (glucosamine-6-phosphate [1]): < 1e-05 s⁻¹ | self-cleavage kobs at 2500 uM GlcN6P (glucosamine-6-phosphate [2]): < 1e-05 s⁻¹

C10A U49C
self-cleavage kobs at 640 uM GlcN6P (glucosamine-6-phosphate [1]): < 1e-05 s⁻¹

G9U U30C U57A
self-cleavage kobs at 640 uM GlcN6P (glucosamine-6-phosphate [1]): < 1e-05 s⁻¹ | self-cleavage kobs at 2500 uM GlcN6P (glucosamine-6-phosphate [2]): < 1e-05 s⁻¹

C10U G41C G44U U55C C58U
self-cleavage kobs at 640 uM GlcN6P (glucosamine-6-phosphate [1]): < 1e-05 s⁻¹

C11G C16A U31C A42U
self-cleavage kobs at 640 uM GlcN6P (glucosamine-6-phosphate [1]): < 1e-05 s⁻¹

C11A G13C U57G
self-cleavage kobs at 640 uM GlcN6P (glucosamine-6-phosphate [1]): < 1e-05 s⁻¹

C11U A12C G13U G38U U56A C71U
self-cleavage kobs at 640 uM GlcN6P (glucosamine-6-phosphate [1]): < 1e-05 s⁻¹ | self-cleavage kobs at 2500 uM GlcN6P (glucosamine-6-phosphate [2]): < 1e-05 s⁻¹

C11A U30G C34U C50G
self-cleavage kobs at 640 uM GlcN6P (glucosamine-6-phosphate [1]): 0.000134 ± 2.8e-05 s⁻¹

G9U U54C C68U
self-cleavage kobs at 640 uM GlcN6P (glucosamine-6-phosphate [1]): < 1e-05 s⁻¹

A12C A15C U30G U49G G59A A64G
self-cleavage kobs at 640 uM GlcN6P (glucosamine-6-phosphate [1]): < 1e-05 s⁻¹ | self-cleavage kobs at 2500 uM GlcN6P (glucosamine-6-phosphate [2]): < 1e-05 s⁻¹

C10U C16U C71G
self-cleavage kobs at 640 uM GlcN6P (glucosamine-6-phosphate [1]): 6.17e-05 ± 2.9e-05 s⁻¹

C10A A15C U45C
self-cleavage kobs at 640 uM GlcN6P (glucosamine-6-phosphate [1]): < 1e-05 s⁻¹

C11U C68G
self-cleavage kobs at 640 uM GlcN6P (glucosamine-6-phosphate [1]): 0.000314 ± 0.00012 s⁻¹

G9U C70G
self-cleavage kobs at 640 uM GlcN6P (glucosamine-6-phosphate [1]): < 1e-05 s⁻¹ | self-cleavage kobs at 2500 uM GlcN6P (glucosamine-6-phosphate [2]): < 1e-05 s⁻¹ | self-cleavage kobs at 10000 uM GlcN6P (glucosamine-6-phosphate [3]): < 1e-05 s⁻¹

A12G A48C C68G
self-cleavage kobs at 640 uM GlcN6P (glucosamine-6-phosphate [1]): < 1e-05 s⁻¹ | self-cleavage kobs at 2500 uM GlcN6P (glucosamine-6-phosphate [2]): < 1e-05 s⁻¹

C10A C16U C68A
self-cleavage kobs at 640 uM GlcN6P (glucosamine-6-phosphate [1]): 0.000489 ± 0.00017 s⁻¹

C10U C11A G43A C68G C70U
self-cleavage kobs at 640 uM GlcN6P (glucosamine-6-phosphate [1]): < 1e-05 s⁻¹

G9U A36C G43U
self-cleavage kobs at 640 uM GlcN6P (glucosamine-6-phosphate [1]): < 1e-05 s⁻¹ | self-cleavage kobs at 2500 uM GlcN6P (glucosamine-6-phosphate [2]): < 1e-05 s⁻¹

C10G A48U A52U
self-cleavage kobs at 640 uM GlcN6P (glucosamine-6-phosphate [1]): < 1e-05 s⁻¹

C11A A12C A42C
self-cleavage kobs at 640 uM GlcN6P (glucosamine-6-phosphate [1]): < 1e-05 s⁻¹ | self-cleavage kobs at 2500 uM GlcN6P (glucosamine-6-phosphate [2]): < 1e-05 s⁻¹

C11U G29C U31A C34A A52C G60U
self-cleavage kobs at 640 uM GlcN6P (glucosamine-6-phosphate [1]): < 1e-05 s⁻¹ | self-cleavage kobs at 2500 uM GlcN6P (glucosamine-6-phosphate [2]): < 1e-05 s⁻¹

A12U G13A G29A U45G
self-cleavage kobs at 640 uM GlcN6P (glucosamine-6-phosphate [1]): < 1e-05 s⁻¹ | self-cleavage kobs at 2500 uM GlcN6P (glucosamine-6-phosphate [2]): < 1e-05 s⁻¹

A12U C16U A42U
self-cleavage kobs at 640 uM GlcN6P (glucosamine-6-phosphate [1]): 0.000196 ± 4.1e-05 s⁻¹

C11U G62U
self-cleavage kobs at 640 uM GlcN6P (glucosamine-6-phosphate [1]): < 1e-05 s⁻¹ | self-cleavage kobs at 10000 uM GlcN6P (glucosamine-6-phosphate [3]): < 1e-05 s⁻¹

C10G G38A U47C A52C
self-cleavage kobs at 640 uM GlcN6P (glucosamine-6-phosphate [1]): < 1e-05 s⁻¹

A12U A53G U56C
self-cleavage kobs at 640 uM GlcN6P (glucosamine-6-phosphate [1]): 0.00708 ± 0.0025 s⁻¹ | self-cleavage kobs at 2500 uM GlcN6P (glucosamine-6-phosphate [2]): 0.0149 ± 0.0066 s⁻¹

A12C U31C A48C A52U
self-cleavage kobs at 640 uM GlcN6P (glucosamine-6-phosphate [1]): < 1e-05 s⁻¹ | self-cleavage kobs at 2500 uM GlcN6P (glucosamine-6-phosphate [2]): < 1e-05 s⁻¹

C11A A53U U69C C71U
self-cleavage kobs at 640 uM GlcN6P (glucosamine-6-phosphate [1]): 0.000106 ± 4.9e-05 s⁻¹ | self-cleavage kobs at 2500 uM GlcN6P (glucosamine-6-phosphate [2]): 5.97e-05 ± 2.3e-05 s⁻¹

G9C C67A C71U
self-cleavage kobs at 640 uM GlcN6P (glucosamine-6-phosphate [1]): < 1e-05 s⁻¹ | self-cleavage kobs at 2500 uM GlcN6P (glucosamine-6-phosphate [2]): < 1e-05 s⁻¹

C11U C58A A64C
self-cleavage kobs at 640 uM GlcN6P (glucosamine-6-phosphate [1]): < 1e-05 s⁻¹

A12U C16U A33C
self-cleavage kobs at 640 uM GlcN6P (glucosamine-6-phosphate [1]): 0.000251 ± 4.5e-05 s⁻¹ | self-cleavage kobs at 2500 uM GlcN6P (glucosamine-6-phosphate [2]): 0.000381 ± 7.2e-05 s⁻¹

G9C A12C C58U
self-cleavage kobs at 640 uM GlcN6P (glucosamine-6-phosphate [1]): < 1e-05 s⁻¹ | self-cleavage kobs at 2500 uM GlcN6P (glucosamine-6-phosphate [2]): < 1e-05 s⁻¹

G9U U30C C34U C58U G66U C70G
self-cleavage kobs at 640 uM GlcN6P (glucosamine-6-phosphate [1]): < 1e-05 s⁻¹ | self-cleavage kobs at 10000 uM GlcN6P (glucosamine-6-phosphate [3]): < 1e-05 s⁻¹
